The record followed here is article PMC10901363 (Science Advances, 2024).

The target in assay [1] is mini PTPN21-EGFP (UniProt Q16825). Kind of assay: MST.
The target of assay [2] is T1, PTPN21 FERM domain (FERM^PTPN21) (Homo sapiens, UniProt Q16825).
T1 construct: FERM domain, residues 21 to 319 (18 to 319 stated for the crystal); E. coli Rosetta (DE3), His-sumo tag removed; C-terminal EGFP fusion for MST; Flag-tagged for PIP-strips; monomer
T1 sequence (Q16825 21-319): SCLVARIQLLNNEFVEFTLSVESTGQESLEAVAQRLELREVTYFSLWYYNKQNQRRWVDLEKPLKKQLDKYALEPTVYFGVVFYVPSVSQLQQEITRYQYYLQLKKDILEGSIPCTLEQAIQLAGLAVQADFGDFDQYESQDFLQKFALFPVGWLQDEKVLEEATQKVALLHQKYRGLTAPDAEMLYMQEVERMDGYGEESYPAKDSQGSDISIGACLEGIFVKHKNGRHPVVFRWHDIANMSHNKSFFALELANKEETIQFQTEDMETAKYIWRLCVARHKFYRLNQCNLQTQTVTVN
The experiment in a line: microscale thermophoresis (FERM-EGFP). Format: binding.

Assay [3] concerns the target T2, PTPN21 PTP C1108S (UniProt Q16825 872-1174, C1108S).
T2 construct: also called PTP^PTPN21 C1108S; source: E. coli Rosetta (DE3), purified (as the wild type); not shown: His-sumo, N-terminal, cleaved
T2 sequence (looked up): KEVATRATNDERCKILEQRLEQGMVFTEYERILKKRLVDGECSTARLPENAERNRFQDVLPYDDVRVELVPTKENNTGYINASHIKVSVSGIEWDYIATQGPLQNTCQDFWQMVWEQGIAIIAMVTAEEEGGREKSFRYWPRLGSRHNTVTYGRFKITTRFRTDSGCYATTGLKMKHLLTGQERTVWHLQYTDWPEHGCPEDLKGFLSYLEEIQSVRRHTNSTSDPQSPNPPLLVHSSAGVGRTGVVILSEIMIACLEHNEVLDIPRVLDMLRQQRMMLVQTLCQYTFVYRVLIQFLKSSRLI
The experiment in a line: crystal structure; mini PTPN21 C1108S: FERM and PTP joined on one chain by a flexible linker, hanging drop, 4°C. The conditions noted are these: both partners purified.

For assay [4], the target named is T3, PTPN21 PTP-EGFP (UniProt Q16825 872-1174).
T3 construct: also called WT PTP-EGFP; source: E. coli Rosetta (DE3), purified (as the untagged domain); not shown: His-sumo, N-terminal, cleaved; EGFP, C-terminal, kept
T3 sequence (looked up): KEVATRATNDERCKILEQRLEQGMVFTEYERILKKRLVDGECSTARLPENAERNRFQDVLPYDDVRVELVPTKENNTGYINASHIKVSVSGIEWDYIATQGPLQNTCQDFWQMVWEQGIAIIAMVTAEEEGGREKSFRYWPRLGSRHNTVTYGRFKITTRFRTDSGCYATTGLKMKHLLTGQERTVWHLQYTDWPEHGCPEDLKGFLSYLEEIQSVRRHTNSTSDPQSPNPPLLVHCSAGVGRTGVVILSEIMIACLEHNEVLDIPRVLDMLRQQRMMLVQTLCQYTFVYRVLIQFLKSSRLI
The experiment in a line: MST; PTP-EGFP fixed at 80 nM, FERM titrated from 300 μM to 0.09 nM; 20 mM Hepes pH 7.0, 150 mM NaCl, 0.3 mM TCEP, 1.5 mM BSA; mutants measured similarly. The conditions noted are these: both partners purified.

In assay [1], “HPV18 E7 protein, full length (from UniProt P06788 1-105) (natural protein)” gave a Kd of 200 nM. This lies in the sub-micromolar range.
Consider `O=P(O)(O)O[C@@H]1[C@@H](O)[C@H](OP(=O)(O)O)[C@H](O)[C@H](O)[C@H]1O` [ins(1,5)P2], for which, in assay [2], the Kd was ~1320 nM.
As to `O=P(O)(O)O[C@@H]1[C@H](O)[C@H](OP(=O)(O)O)[C@@H](O)[C@H](O)[C@H]1O` [ins(1,3)P2], in assay [2], the Kd was ~6110 nM.
For “HPV18 E7 CR3 domain (from UniProt P06788 54-105) (domain or fragment)”, the dissociation constant Kd in assay [1] came out at 49 nM.

B1: PTPN21 FERM domain (residues 21 to 319) (domain or fragment, UniProt Q16825 21-319, looked up)
chain: SCLVARIQLLNNEFVEFTLSVESTGQESLEAVAQRLELREVTYFSLWYYNKQNQRRWVDLEKPLKKQLDKYALEPTVYFGVVFYVPSVSQLQQEITRYQYYLQLKKDILEGSIPCTLEQAIQLAGLAVQADFGDFDQYESQDFLQKFALFPVGWLQDEKVLEEATQKVALLHQKYRGLTAPDAEMLYMQEVERMDGYGEESYPAKDSQGSDISIGACLEGIFVKHKNGRHPVVFRWHDIANMSHNKSFFALELANKEETIQFQTEDMETAKYIWRLCVARHKFYRLNQCNLQTQTVTVN
notes: also called FERM^PTPN21; source: E. coli Rosetta (DE3), purified (Ni-NTA, source Q, Superdex 200); not shown: His-sumo, N-terminal, cleaved
With B1, the binding result in assay [3] is reported as “binds”. Besides, in assay [4], the Kd was ~7600 nM.
